Numbering of substitutions follows the chain as printed. Numbers in names are those of the source.
B1: SCF_(M,K91E), soluble (ligand, UniProt P21583 26-214, looked up)
chain: EGICRNRVTNNVKDVTKLVANLPKDYMITLKYVPGMDVLPSHCWISEMLVQLSDSLTDLLDKLSNISEGLSNYSIIDKLVNIVDDLVECVEENSSKDLKKSFKSPEPRLFTPEEFFRIFNRSIDAFKDFVVASETSDCVVSSTLSPEKDSRVSVTKPFMLPPVAASSLRNDSSSSNRKAKNPPGDSSLH
notes: stem cell factor (SCF), SCFM (V49L, F63L) with K91E, selected from the first-generation yeast display library; source: purified in non-glycosylated form (production described in the Supplementary Materials)
B2: SCF_(M,K91E,L98R), soluble (ligand, UniProt P21583 26-214, looked up)
chain: B1 chain with L98R
notes: stem cell factor (SCF), SCFM (V49L, F63L) with K91E and L98R, selected from the second-generation yeast display library; also called SCF_(K91E,L98R); source: purified in non-glycosylated form (production described in the Supplementary Materials)
B3: SCF_(M,S64P,F126S,V131A,E134G,V139I), soluble (ligand, UniProt P21583 26-214, looked up)
chain: B1 chain with S64P, E91K, F126S, V131A, E134G, V139I
notes: stem cell factor (SCF), SCFM (V49L, F63L) with S64P, F126S, V131A, E134G and V139I, selected from the first-generation yeast display library; also called SCFM,N; source: purified in non-glycosylated form (production described in the Supplementary Materials)

Assays:
[1] = target: SCFM, stem cell factor V49L F63L double mutant, soluble (UniProt P21583); experiment: small angle X-ray scattering; purified SCFWT and SCFM at 3 or 5 mg/mL (193 or 322 µM), 25 °C; radius of gyration compared with that of the theoretical monomer and dimer from PDB 1SCF
[2] = target: T1, recombinant c-Kit (R&D Systems) (UniProt P10721 26-524); experiment: SPR; ProteOn XPR36; c-Kit amine-coupled to a GLC chip; SCF proteins flowed in PBST at 100 µL/min, 25 °C; KD from the equilibrium-binding phase, 1:1 Langmuir model; BSA channel subtracted; conditions: both partners purified
T1 construct: c-Kit receptor tyrosine kinase, recombinant; No catalogue number printed; the discussion calls it 'recombinant soluble c-Kit'; also called surface-immobilized c-Kit; recombinant soluble c-Kit; source: bought: R&D Systems
T1 sequence (P10721 26-524): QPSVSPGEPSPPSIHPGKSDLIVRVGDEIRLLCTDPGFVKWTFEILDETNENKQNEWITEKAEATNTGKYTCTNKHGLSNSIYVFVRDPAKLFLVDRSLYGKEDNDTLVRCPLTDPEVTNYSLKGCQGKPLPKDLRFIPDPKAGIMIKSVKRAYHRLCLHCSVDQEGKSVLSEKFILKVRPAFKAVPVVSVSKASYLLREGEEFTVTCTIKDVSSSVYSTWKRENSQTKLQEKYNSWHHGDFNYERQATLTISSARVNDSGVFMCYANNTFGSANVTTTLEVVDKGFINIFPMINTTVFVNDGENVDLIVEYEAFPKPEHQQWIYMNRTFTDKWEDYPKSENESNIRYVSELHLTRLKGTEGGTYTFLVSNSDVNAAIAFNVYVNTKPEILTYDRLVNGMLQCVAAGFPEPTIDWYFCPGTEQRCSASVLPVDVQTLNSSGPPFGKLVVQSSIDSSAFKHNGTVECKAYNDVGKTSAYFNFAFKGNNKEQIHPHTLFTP

Row | Molecule | stoichiometry N [1] | Kd [2]
1 | SCFM, stem cell factor V49L F63L double mutant, soluble (from UniProt P21583 26-214) (ligand) | 2 | –
2 | B1 | – | 88.9 nM
3 | B2 | – | 40.7 nM
4 | B3 | – | 74.4 nM

Source: publication PMC7588011, “Engineering Stem Cell Factor Ligands with Different c-Kit Agonistic Potencies” (Molecules, 2020)
